Reference: article PMC2528183

Tests used:
[1] = biological target: Thermus thermophilus RecF (ttRecF) (Thermus thermophilus); test: SAXS
[2] = biological target: Thermus thermophilus RecR (ttRecR), wild type (Thermus thermophilus); test: SAXS
[3] = biological target: Thermus thermophilus RecR (ttRecR), wild type (Thermus thermophilus); test: SEC
[4] = biological target: Thermus thermophilus RecR (ttRecR), wild type (Thermus thermophilus); test: SAXS; remark: listed apart in the source
[5] = biological target: T1, ttRecF (Thermus thermophilus, UniProt Q5SLM9 1-343); test: EMSA
T1 sequence: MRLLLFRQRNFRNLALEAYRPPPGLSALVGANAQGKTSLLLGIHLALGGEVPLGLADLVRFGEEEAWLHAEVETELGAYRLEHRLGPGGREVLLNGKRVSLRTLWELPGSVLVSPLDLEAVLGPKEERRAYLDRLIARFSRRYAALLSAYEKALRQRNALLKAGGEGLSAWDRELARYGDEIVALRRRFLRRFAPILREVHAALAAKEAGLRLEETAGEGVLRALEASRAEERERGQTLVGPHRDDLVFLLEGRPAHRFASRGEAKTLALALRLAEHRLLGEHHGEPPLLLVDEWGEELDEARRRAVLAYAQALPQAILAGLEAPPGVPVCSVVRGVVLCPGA

[6] = biological target: T2, ttRecR (Thermus thermophilus, UniProt Q5SHY0 1-194); test: EMSA
T2 sequence: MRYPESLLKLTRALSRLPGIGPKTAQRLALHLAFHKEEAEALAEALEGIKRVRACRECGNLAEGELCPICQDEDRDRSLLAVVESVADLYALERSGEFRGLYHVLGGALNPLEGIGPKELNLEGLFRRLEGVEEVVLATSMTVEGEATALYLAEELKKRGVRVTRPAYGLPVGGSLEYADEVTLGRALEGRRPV

[7] = biological target: T3, ttRecF;ttRecR (Thermus thermophilus;Thermus …, UniProt Q5SLM9;Q5SHY0 1-343;1-194, |); test: EMSA
T3 sequence 1: T1 sequence
T3 sequence 2: T2 sequence

Molecule: Thermus thermophilus RecR (ttRecR), wild type (natural protein)
- N, ttRecF chains in the complex [1]: 2
- N, ttRecR chains in the complex [1]: 4
- stoichiometry N [2]: 2
- stoichiometry N [3]: 2
- stoichiometry N [4]: 4

B1: 70 bp dsDNA (dsDNA)
DNA 1: GCGATCCTTATTAAAACGGCAACTCCTCCTCCGGCGGAAAGTCTTCCAAGCCTTCGTCAATGTCCACCCC
DNA 2: GGGGTGGACATTGACGAAGGCTTGGAAGACTTTCCGCCGGAGGAGGAGTTGCCGTTTTAATAAGGATCGC
- binding result [5]: binds
- binding result [6]: no binding
- binding result [7]: binds
